Measured values as given in publication PMC7660908.

What was measured:
[1] = target: AausFP2 (His-tag removed with proteinase K, crystallised) (Aequorea cf. australis); assay: crystal structure; AausFP2 at 51 mg/ml, hanging drop, 14%-24% PEG 3350 trisodium citrate, 0.2 M sodium chloride, 0.1 M HEPES pH 7.3-8.2; 1 molecule in the asymmetric unit; interfaces analysed with PISA
[2] = target: AausFP1 (His-tag cleaved, crystallised) (Aequorea cf. australis); assay: crystal structure; AausFP1 at 40 mg/ml, hanging drop, 0.7-1.3 M trisodium citrate, 0.2 M sodium chloride, 0.1 M Tris pH 6.5-8.0; 4 molecules in the asymmetric unit; interfaces analysed with PISA

Row | stoichiometry N [1] | stoichiometry N [2] | Substance
1 | 2 | – | AausFP2 (His-tag removed with proteinase K, crystallised) (natural protein)
2 | – | 2 | AausFP1 (His-tag cleaved, crystallised) (natural protein)
